Measurements from article PMC5039685 (Theranostics, 2016).

Target: GST-Src (UniProt P12931 1-536)
Assay: pull-down

- binding result: binds
B1: (His)6-tagged EB1 (natural protein, UniProt Q15691 1-268, looked up)
chain: MAVNVYSTSVTSDNLSRHDMLAWINESLQLNLTKIEQLCSGAAYCQFMDMLFPGSIALKKVKFQAKLEHEYIQNFKILQAGFKRMGVDKIIPVDKLVKGKFQDNFEFVQWFKKFFDANYDGKDYDPVAARQGQETAVAPSLVAPALNKPKKPLTSSSAAPQRPISTQRTAAAPKAGPGVVRKNPGVGNGDDEAAELMQQVNVLKLTVEDLEKERDFYFGKLRNIELICQENEGENDPVLQRIVDILYATDEGFVIPDEGGPQEEQEEY
